Where “and” joins values, the source holds several entries; their conditions need not be identical. Equal entries are not always repeated. Where two headings read alike, the source gives them in different places.
Key:
[1] = target: Acanthamoeba myosin-II (Acanthamoeba); assay: electron microscopy
[2] = target: Acanthamoeba myosin-II (Acanthamoeba); assay: electron microscopy; remark: listed apart in the source
[3] = target: Acanthamoeba myosin-II, 2.6 heavy chain phosphates per molecule (Acanthamoeba); assay: sedimentation
[4] = target: Acanthamoeba myosin-II, 2.6 heavy chain phosphates per molecule (Acanthamoeba); assay: sedimentation; remark: listed apart in the source
[5] = target: Acanthamoeba myosin-II, 2.6 heavy chain phosphates per molecule (Acanthamoeba); assay: sedimentation; remark: listed apart in the source
[6] = target: Acanthamoeba myosin-II, 2.6 heavy chain phosphates per molecule (Acanthamoeba); assay: sedimentation; remark: listed apart in the source
[7] = target: Acanthamoeba myosin-II, 4.9 heavy chain phosphates per molecule (Acanthamoeba); assay: sedimentation
[8] = target: Acanthamoeba myosin-II, dephosphorylated, 0.8 heavy chain phosphates per molecule (Acanthamoeba); assay: sedimentation

Acanthamoeba myosin-II (complex)
stoichiometry N [1]: > 35
stoichiometry N [2]: 16 and > 12

Acanthamoeba myosin-II, 2.6 heavy chain phosphates per molecule (complex)
critical concentration [3]: 24 µg/mL and 32 µg/mL
critical concentration [4]: 26 µg/mL
critical concentration [5]: 14 µg/mL and 18 µg/mL and 15 µg/mL
critical concentration [6]: 20 µg/mL and 15 µg/mL

Acanthamoeba myosin-II, 4.9 heavy chain phosphates per molecule (complex)
critical concentration [7]: < 5 µg/mL

Acanthamoeba myosin-II, dephosphorylated, 0.8 heavy chain phosphates per molecule (complex)
critical concentration [8]: 18 µg/mL
